Laboratory results reported in US20230340151A1 (Pfizer, published 2023).

Legend:
Assay in all cases: flow cytometry on cells displaying the construct
[1] = molecular target: T1, CID1876 (human-chicken GUCY2c chimera) (human/chicken)
T1 chain: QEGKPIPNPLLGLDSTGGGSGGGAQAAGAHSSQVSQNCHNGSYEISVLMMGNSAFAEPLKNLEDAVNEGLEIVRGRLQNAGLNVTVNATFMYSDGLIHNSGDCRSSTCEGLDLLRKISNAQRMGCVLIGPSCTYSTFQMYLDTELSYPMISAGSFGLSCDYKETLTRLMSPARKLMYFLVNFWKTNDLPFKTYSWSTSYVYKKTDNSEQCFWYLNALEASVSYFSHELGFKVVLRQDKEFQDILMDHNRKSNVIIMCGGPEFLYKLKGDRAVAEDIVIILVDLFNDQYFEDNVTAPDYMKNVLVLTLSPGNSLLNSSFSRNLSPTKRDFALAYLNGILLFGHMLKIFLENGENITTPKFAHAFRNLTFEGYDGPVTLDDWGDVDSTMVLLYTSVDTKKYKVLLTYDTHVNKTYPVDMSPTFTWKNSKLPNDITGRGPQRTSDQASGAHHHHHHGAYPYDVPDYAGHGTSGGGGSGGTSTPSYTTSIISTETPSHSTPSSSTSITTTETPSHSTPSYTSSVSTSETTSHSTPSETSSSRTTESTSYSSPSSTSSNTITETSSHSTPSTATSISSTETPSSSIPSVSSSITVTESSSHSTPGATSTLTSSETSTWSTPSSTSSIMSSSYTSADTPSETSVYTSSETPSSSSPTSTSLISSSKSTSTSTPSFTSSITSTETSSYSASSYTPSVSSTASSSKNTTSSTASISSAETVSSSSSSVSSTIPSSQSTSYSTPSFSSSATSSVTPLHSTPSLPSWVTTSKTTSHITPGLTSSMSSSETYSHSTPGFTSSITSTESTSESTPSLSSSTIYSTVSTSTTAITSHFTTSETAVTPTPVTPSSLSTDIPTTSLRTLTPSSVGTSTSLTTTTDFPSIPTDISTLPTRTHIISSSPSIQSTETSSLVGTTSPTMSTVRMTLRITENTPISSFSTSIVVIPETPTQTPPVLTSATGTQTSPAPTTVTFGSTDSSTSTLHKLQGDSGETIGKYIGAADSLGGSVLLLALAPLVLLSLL
Description: (§1) Cells were then washed three times with PBS+0.5% BSA buffer. […] Cells were washed three times with PBS+0.5% BSA buffer and then analyzed on a flow cytometer.
(§2) MFI (median fluorescence intensity) of anti-GUCY2c antibody binding to the cells was normalized to expression on cell surface measured by MFI of anti-tag antibodies. All the cells expressed V5 and HA on the cell surface for expression normalization.

[2] = molecular target: T2, CID1880 (human-chicken GUCY2c chimera) (human/chicken)
T2 chain: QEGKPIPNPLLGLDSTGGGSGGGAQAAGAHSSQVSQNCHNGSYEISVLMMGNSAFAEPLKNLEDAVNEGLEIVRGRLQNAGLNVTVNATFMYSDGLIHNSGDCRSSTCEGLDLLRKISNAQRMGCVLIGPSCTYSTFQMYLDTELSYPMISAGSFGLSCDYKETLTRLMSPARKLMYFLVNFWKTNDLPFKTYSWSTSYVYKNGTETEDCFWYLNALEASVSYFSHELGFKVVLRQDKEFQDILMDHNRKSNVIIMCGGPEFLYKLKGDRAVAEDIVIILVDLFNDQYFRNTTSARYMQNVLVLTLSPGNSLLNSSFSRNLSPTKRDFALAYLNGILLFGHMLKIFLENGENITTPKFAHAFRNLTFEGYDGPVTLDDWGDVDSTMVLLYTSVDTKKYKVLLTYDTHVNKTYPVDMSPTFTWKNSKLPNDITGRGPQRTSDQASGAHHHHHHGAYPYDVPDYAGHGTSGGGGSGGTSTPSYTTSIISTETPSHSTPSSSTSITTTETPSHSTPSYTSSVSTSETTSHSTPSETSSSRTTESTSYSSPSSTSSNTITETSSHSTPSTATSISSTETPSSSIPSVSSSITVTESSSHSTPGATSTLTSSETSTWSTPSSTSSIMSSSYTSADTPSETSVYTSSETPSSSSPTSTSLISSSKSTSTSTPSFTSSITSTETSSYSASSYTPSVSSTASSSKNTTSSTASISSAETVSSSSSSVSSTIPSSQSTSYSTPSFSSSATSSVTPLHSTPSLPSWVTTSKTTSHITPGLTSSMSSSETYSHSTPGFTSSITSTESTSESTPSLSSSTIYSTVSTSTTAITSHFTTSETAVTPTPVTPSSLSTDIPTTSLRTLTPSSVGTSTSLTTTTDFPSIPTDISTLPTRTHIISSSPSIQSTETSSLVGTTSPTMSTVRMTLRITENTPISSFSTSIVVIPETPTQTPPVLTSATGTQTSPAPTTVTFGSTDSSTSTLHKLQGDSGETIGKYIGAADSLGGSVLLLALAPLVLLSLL
Description: as §1, §2

[3] = molecular target: CID1942 (human GUCY2c point mutant) (human)
Description: as §1, §2

[4] = molecular target: CID1944 (human GUCY2c point mutant) (human)
Description: as §1, §2

[5] = molecular target: CID1949 (human GUCY2c point mutant) (human)
Description: as §1, §2

Measured: binding result

B1: GUCY2C-1608 (bispecific antibody)
chain 1: DIQLTQSPSSLSASVGDRVTITCRASESVDYYGSSLLQWYQQKPGKAPKLLIYAASKLASGVPSRFSGSGSGTDFTLTISSLQPEDFATYYCQQTRKAYTFGQGTKLEIKGGGSGGGGEVQLVESGGGLVQPGGSLRLSCAASGFTFSDYYMTWVRQAPGKGLEWVAFIRNQARGYTSDHNPSVKGRFTISRDNAKNSLYLQMNSLRAEDTAVYYCARDRPSYYVLDYWGQGTTVTVSSGCPPCPAPEAAGAPSVFLFPPKPKDTLMISRTPEVTCVVVDVSHEDPEVKFNWYVDGVEVHNAKTKPREEQYNSTYRVVSVLTVLHQDWLNGKEYKCKVSNKALPAPIEKTISKAKGQPREPQVCTLPPSREEMTKNQVSLWCLVKGFYPSDIAVEWESNGQPENNYKTTPPVLDSDGSFFLYSKLTVDKSRWQQGNVFSCSVMHEALHNHYTQKSLSLSPG
chain 2: DIQMTQSPSSLSASVGDRVTITCTSSQSLFNVRSQKNYLAWYQQKPGKAPKLLIYWASTRESGVPSRFSGSGSGTDFTLTISSLQPEDFATYYCKQSYDLFTFGGGTKVEIKGGGGSGGGGEVQLVESGGGLVQPGGSLRLSCAASGFTFSSYWMHWVRQAPGKGLEWIGEIKPSNELTNVHEKFKDRFTISVDKAKNSAYLQMNSLRAEDTAVYYCTRTITTTEGYWFFDVWGQGTLVTVSSGCPPCPAPEAAGAPSVFLFPPKPKDTLMISRTPEVTCVVVDVSHEDPEVKFNWYVDGVEVHNAKTKPREEQYNSTYRVVSVLTVLHQDWLNGKEYKCKVSNKALPAPIEKTISKAKGQPREPQVYTLPPCREEMTKNQVSLSCAVKGFYPSDIAVEWESNGQPENNYKTTPPVLDSDGSFFLVSKLTVDKSRWQQGNVFSCSVMHEALHNHYTQKSLSLSPG
notes: also called GUCY2c CD3 bispecific
binds: all assays above
